From patent US7985736B2, “High throughput screen utilizing newly discovered intramolecular neuronal calcium channel interactions to discover new analgesics” (The John Hopkins University, priority 2004, dated 2011) come the findings set out here.

In experiment [1] the target is T1, I-II loop of α1B (I-IIB) (Homo sapiens, UniProt Q00975).
T1 construct: I-IIB(357-482)-pGADT7 & lam-pGBKT7; expressed in transfected cells; host or cells: AH109 yeast
Nature of the experiment: Yeast two-hybrid assay, NT peptides versus I-IIB. The class given is binding. The note with it: NT segment in pGBKT7, I-IIB in pGADT7. The source says:
(§1) For yeast two-hybrid assays, a PCR fragment encoding one partner was fused, in-frame, with the GAL4 DNA binding domain (BD) in pGBKT7 (Clontech, Palo Alto, Calif.). The other element was fused, in-frame, with the GAL4 activation domain (AD) in pGADT7. For specific residues, see Supplemental Data (section 2). For electrophysiology, NT peptides lacking fluorophore tag were PCR amplified and cloned in pcDNA3. NTB peptide residues, 1-95; NTC residues, […]. Throughout, all segments subject to PCR or QuikChange were verified in their entirety by sequencing.
(§2) The Matchmaker GAL4 Two-Hybrid System 3 was used (Clontech, Palo Alto, Calif.). AH109 yeast were transformed with pGBKT7/pGADT7-based constructs (Yeastmaker Yeast Transformation System 2 kit, Clontech). After 5-8 days, growth on -leucine/-trytophan plates confirmed transformation of both plasmids. If partners interact, GAL4 BD/AD would complex, activating reporter genes (HIS3, ADE2, lacZ, and MEL1), for which assays are detailed in the Supplemental Data (section 2.1).
(§3) As a ‘medium’ stringency assay, expression of the lacZ gene was tested for encoding β-galactosidase, performing a filter lift with application of blue chromogenic substrate (Clontech-Laboratories, 1999). After the filter lift, original plates were re-grown for 2-3 days at 30° C. Filter paper was then used to replicate colonies onto a high stringency plate (-adenine/-histidine/-leucine/-trytophan). These plates were then incubated at 30° C. for 5-8 days. Survival on high stringency plates indicates production of both adenine and histidine, from transcription of the ADE2 and HIS3 genes, respectively. The percentage of colonies that turned blue in the filter lift assay, along with the percentage of colonies that survived on high stringency plates, was recorded for each pairing. Experiments were repeated at least three times. False positives were controlled for by testing each segment in pGBKT7 against empty pGADT7, and each segment in pGADT7 against lamin C in pGBKT7 (lamin C interacts with few proteins). Average sum of these backgrounds was subtracted from B to produce the net interaction parameter ΔB (FIG. 2).

Experiment [2] has as its target T2, N-type (α1B) Ca2+ channels (Homo sapiens, UniProt Q00975).
T2 construct: transferred by EcoRI and Bgl II sites into the full-length α1B construct; expressed in transfected cells; host or cells: HEK293
Nature of the experiment: Whole-cell G/Q analysis and prepulse facilitation of recombinant N-type channels coexpressed with peptide in HEK293 cells. The class given is cell-based. The note with it: for Effect on G/Q slope (Gmax-Qmax relation), with Gβγ: peptide coexpressed with channels and Gβγ, Gmax after 100 mV prepulse. The source says: FIG. 3A illustrates an approach for N-type channels without Gβγ coexpression. Exemplar currents activated quickly and were barely facilitated by strong prepulse depolarization (FIG. 3A, left). The slight residual prepulse facilitation reflects basal endogenous Gβγ activation. To estimate open probability, two intermediary parameters were specified. First, to gauge the number of channels in a cell (Nchannel), the channel gating current at the reversal potential for ionic current were isolated (FIG. 3A, middle left) (Jones et al., 1999). The area under this current yields the maximal gating charge Qmax, where Qmax=Nchannel×qmax, and qmax is the maximal gating charge per channel. Second, Gmax for a given cell, the maximal ionic current conductance determined as the slope of the peak current-voltage relation at depolarized potentials were determined (FIG. 3A, middle right, line). Here and throughout, current-voltage relations were determined after a 100 mV prepulse, which transiently relieves all G protein inhibition (Colecraft et al., 2000), thus eliminating these inhibitory effects in the estimate of Gmax. Accordingly, Gmax=Nchannel×Po,max×g, where Po,max is the maximal channel open probability at saturating de-polarization, and g is the conductance of a single open channel. In combination, then, a plot of Gmax versus Qmax for multiple cells ([…]) would describe a linear relation with slope equal to Po,max×g/qmax. Because g and qmax are unchanged by G protein modulation (Colecraft et al., 2001; Jones et al., 1997; Patil et al., 1996), this slope (G/Q=0.44±0.03 nS/fC) is proportional to Po,max . . . FIG. 3B documents the supporting results for N-type channels coexpressed with Gβγ. Gmax determined after prepulse de-polarization, when plotted against Qmax, specifies an identical slope to that without Gβγ (FIG. 3B, right, G/Q=0.43±0.04 nS/fC). […] Free NTB peptide with α1B channels. Initially, an NTB-CFP peptide was employed to visually confirm expression was coexpressed. […] By contrast, coexpressing channels with NTB-CFP and Gβγ produced remarkable effects (FIG. 3D). […] More telling were small ionic current amplitudes despite gating current magnitudes on par with controls (FIG. 3D, middle panels). Consequently, there was a significant ^w6-fold depression of the Gmax-Qmax plot (FIG. 3D, right). If NTB-CFP were simply chelating Gβγ (FIG. 2C), the G/Q slope would be unchanged from control. Instead, the suppression of G/Q indicates constitutive inhibition of channel opening.
Cells were transiently transfected and cultured in 10 cm plates (Brody et al., 1997). For 2+Ca^2+ channels, 8 μg was used of each of cDNAs of the desired a1, rat brain β2a (Perez-Reyes et al., 1992), and rat brain a^28 (Tomlinson et al., 1993) subunits; along with 2 μg T-antigen cDNA. N-type α1B, human origin (NM000718); L-type α1C, rabbit (Wei et al., 1991) (X15539). Gβγ coexpressed with 4 μg each of Gβ1 (Sugimoto et al., 1985) and Gγ2 (Gautam et al., 1990). For coexpression of N-terminal peptides, channel subunit cDNA reduced to 6 μg, while adding 14 μg peptide cDNA. For receptor experiments, 0.5 μg cDNA for m2R (below) applied with other cDNAs.
Whole-cell current records were made with Axopatch 200B (Axon Instruments, Calif.), 1-3 days posttransfection. Pipets, 1.5-3 MΩ before 60-75% series resistance compensation. Internal solution: 135 mM CsMeSO4, 5 mM CsCl, 10 mM EGTA, 10 mM HEPES, 1 mM MgCl2, and 4 mM MgATP. External solution: 150 mM TEAMeSO4, 10 mM HEPES, 2 mM CaCl2, and 1 mM MgCl2. During constitutive inhibition (or as noted for some chimeras), 20 mM BaCl2 was substituted for 2 mM CaCl2, and the resulting solution was diluted 1.08×. To compare across external solutions, a conversion factor of 3.18 was used. Currents and conductances with 20 mM Ba^2+ were thus scaled×1/3.18 to facilitate uniform comparison of values, as if all data had been collected with 2 mM Ca^2+. When applied, conversion is denoted by asterisk (*). […]

For experiment [3], the target named is T3, I-IIB-YFP (Homo sapiens, UniProt Q00975).
T3 construct: I-IIB residues, 357-482; expressed in transfected cells; host or cells: HEK293
Nature of the experiment: Live-cell FRET two-hybrid assay versus I-IIB-YFP in HEK293 cells. The class given is binding. The note with it: for FRmax: 1:1 binding-model fit, CFP-tagged peptide versus I-IIB-YFP; for Kd,EFF / affinity for I-IIB (FRET), in words: relative dissociation constant, HEK293 cells. The source says: To confirm preferential interaction of NTB with I-IIB a live-cell FRET two-hybrid assay was used (Erickson et al., 2003), in which NTB, NTC, I-IIB, and I-IIC were fused to either CFP or YFP, and the resulting fusion constructs expressed pair-wise in mammalian HEK293 cells. Given a Forster distance of ˜50 Å for the CFP/YFP pair (Patterson et al., 2000), the presence of FRET in individual cells would give a strong indication of interpeptide binding in the mammalian intracellular milieu. This indication is generally characterized by a low false-positive rate (Erickson et al., 2003), so that FRET assays provide a useful complement to yeast two-hybrid assays (Allen et al., 1995). […] SCFP (the signal derived from an image obtained with the CFP filter cube) is selective for CFP fluorescence and thereby gives an optical measure of NTB-CFP expression. Analogously, the SYFP signal, derived from preferential excitation and detection of YFP, estimates I-IIB-YFP levels. Finally, the SFRET signal reflects I-IIB-YFP fluorescence stimulated by FRET transfer from NTB-CFP, as well as secondary cross-talk signals. These three signals can be incorporated within a three-cube FRET algorithm to determine the strength of FRET interaction (“FRET ratio,” FR), independently of cross-talk (Erickson et al., 2001). FR adopts a value of unity in the absence of FRET and grows linearly with increasing FRET efficiency (Erickson et al., 2003). FR values for many individual cells are plotted as circles in FIG. 2Eb, with numerous determinations clearly greater than unity. Alternatively, FR values specified by a YFP-photobleaching methodology were also elevated above unity (triangles) (Bastiaens and Jovin, 1996). […] Consistent with yeast two-hybrid assays, then, FRET assays confirmed a selective propensity for NTB and I-IIB segments to associate.
Human m2 muscarinic acetylcholine receptor (AF498916) was engineered to reduce desensitization (Pals-Rylaarsdam and Hosey, 1997). QuikChange (Stratagene, La Jolla, Calif.) introduced cluster mutations, yielding m2R: residues 286-290 (STSVS/AAAVA), residues 307-311 (TVSTS/AVAAA). For FRET assays, base templates were ECFP/EYFP-tagged calmodulin constructs in pcDNA3 (Invitrogen, Carlsbad, Calif.), as described (Erickson et al., 2001). PCR-amplified channel segments or G proteins were substituted for calmodulin via upstream EcoRI and downstream NheI sites, creating in-frame fusions with fluorophore (ECFP/EYFP C-terminal to test molecules). NTC residues, 1-53; I-IIB residues, 357-482; and I-IIC residues, 436-554.
Experiments were performed mostly as previously described (Erickson et al., 2001; Erickson et al., 2003). Briefly, the FRET Ratio (FR) is the fractional increase in YFP emission due to FRET. […] For donor-dequenching analysis, EEFF is calculated as EEFF=^1−CFPpre/CFPpost, where CFPpre and CFPpost are the CFP emissions before/after 3 min YFP photobleaching. FR is determined by FR=(EEFF/[EYFP/ECFP])+1, where EYFP/ECFP is ratio of YFP and CFP molar extinction coefficients through 440 nm excitation bandpass of FRET cube (0.0574). For binding model analysis, Kd,EFF is the effective dissociation constant, related to actual Kd via filter/microscope optical characteristics. […]
Experiments were performed as described previously for the most part (Erickson et al., 2001; Erickson et al., 2003). Specifically, for quantitative analysis, all fluorescence from single cells were isolated through a pinhole in the image plane, and detected by photo-multiplier tube. In all three-cube FRET experiments, CFP levels were below a threshold where spurious, concentration-dependent FRET became significant (Stratton et al., 2004). Similarly, for donor-dequenching experiments, YFP levels were below an analogous threshold. […]

Experiment [4] addresses T4, Gβ1 (Bos taurus, UniProt P62871).
T4 construct: expressed in transfected cells; host or cells: AH109 yeast
The experiment can be described thus: Yeast two-hybrid assay, channel fragments versus Gβ1. Format: binding. The note with it: Gβ1 in pGADT7, channel fragment in pGBKT7.
Text: as §1, §2
as §3, with “Average sum of these backgrounds was subtracted from B to produce the net interaction parameter ΔB (FIG. 2).” left out

Ends that are not written are not given here.

T3 sequence (Q00975 357-482): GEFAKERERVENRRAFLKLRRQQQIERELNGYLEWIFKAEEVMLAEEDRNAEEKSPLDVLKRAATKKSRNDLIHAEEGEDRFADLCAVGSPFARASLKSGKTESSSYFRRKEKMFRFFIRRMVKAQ
T2 sequence (Q00975 whole entry, other chains not shown): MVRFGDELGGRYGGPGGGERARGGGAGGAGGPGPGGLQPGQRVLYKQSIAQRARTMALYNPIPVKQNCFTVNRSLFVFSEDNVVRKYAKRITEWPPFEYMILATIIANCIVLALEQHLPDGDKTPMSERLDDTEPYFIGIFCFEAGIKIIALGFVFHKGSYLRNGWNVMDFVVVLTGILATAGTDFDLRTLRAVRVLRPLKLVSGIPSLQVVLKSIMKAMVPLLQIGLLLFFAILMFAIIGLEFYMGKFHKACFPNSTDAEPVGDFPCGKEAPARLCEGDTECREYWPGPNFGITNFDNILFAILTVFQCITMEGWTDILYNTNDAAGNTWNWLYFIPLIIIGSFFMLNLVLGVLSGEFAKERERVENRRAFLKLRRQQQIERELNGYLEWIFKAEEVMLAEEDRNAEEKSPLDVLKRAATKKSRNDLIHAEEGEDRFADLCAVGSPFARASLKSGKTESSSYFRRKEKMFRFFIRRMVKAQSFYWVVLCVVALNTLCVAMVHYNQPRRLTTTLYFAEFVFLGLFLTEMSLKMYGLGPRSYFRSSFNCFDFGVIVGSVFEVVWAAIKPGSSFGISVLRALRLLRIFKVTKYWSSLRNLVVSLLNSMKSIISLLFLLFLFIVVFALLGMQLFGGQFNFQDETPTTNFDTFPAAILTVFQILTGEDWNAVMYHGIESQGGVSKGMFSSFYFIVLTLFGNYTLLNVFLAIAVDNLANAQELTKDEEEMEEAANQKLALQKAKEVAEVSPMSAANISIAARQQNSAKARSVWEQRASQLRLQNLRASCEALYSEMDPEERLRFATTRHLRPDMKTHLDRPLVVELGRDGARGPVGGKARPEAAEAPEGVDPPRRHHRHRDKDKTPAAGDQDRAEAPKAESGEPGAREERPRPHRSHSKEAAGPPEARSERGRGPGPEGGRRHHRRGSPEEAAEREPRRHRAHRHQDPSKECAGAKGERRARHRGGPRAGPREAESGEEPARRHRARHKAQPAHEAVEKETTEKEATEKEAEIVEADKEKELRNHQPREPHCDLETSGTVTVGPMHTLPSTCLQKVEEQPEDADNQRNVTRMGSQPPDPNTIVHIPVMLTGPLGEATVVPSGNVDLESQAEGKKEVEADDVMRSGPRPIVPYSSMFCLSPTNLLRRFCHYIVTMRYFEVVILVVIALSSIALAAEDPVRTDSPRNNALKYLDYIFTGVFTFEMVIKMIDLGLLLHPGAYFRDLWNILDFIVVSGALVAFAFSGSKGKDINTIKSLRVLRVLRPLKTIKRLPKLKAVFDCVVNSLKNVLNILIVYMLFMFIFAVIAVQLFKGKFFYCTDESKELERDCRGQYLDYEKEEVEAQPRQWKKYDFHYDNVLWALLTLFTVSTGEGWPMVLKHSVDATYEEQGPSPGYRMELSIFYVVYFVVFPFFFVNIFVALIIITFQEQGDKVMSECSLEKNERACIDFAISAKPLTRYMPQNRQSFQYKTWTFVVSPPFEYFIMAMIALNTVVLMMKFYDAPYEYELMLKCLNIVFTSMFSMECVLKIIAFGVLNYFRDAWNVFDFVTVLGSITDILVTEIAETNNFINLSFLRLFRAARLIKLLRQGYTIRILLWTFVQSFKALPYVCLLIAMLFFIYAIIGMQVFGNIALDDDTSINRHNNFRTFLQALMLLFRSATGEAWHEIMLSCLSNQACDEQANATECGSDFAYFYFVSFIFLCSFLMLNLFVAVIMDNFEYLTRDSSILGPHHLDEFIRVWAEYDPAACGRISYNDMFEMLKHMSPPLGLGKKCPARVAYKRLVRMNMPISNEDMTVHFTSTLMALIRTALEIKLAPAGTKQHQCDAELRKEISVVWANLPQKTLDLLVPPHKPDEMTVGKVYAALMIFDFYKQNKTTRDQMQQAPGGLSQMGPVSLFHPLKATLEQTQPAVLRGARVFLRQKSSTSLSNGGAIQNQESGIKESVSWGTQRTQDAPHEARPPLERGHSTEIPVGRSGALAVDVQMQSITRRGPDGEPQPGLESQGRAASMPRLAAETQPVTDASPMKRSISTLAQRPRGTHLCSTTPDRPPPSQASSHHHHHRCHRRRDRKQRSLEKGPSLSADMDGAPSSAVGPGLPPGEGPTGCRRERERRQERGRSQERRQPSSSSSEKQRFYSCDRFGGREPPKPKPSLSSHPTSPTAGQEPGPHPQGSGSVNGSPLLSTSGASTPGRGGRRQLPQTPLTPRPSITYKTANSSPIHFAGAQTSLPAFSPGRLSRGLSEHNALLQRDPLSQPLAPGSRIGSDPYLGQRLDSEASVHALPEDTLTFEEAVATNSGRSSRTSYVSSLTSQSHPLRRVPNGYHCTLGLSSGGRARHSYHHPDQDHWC
T2 sequence (P54290 25-944 partner limits assumed, other chains not shown): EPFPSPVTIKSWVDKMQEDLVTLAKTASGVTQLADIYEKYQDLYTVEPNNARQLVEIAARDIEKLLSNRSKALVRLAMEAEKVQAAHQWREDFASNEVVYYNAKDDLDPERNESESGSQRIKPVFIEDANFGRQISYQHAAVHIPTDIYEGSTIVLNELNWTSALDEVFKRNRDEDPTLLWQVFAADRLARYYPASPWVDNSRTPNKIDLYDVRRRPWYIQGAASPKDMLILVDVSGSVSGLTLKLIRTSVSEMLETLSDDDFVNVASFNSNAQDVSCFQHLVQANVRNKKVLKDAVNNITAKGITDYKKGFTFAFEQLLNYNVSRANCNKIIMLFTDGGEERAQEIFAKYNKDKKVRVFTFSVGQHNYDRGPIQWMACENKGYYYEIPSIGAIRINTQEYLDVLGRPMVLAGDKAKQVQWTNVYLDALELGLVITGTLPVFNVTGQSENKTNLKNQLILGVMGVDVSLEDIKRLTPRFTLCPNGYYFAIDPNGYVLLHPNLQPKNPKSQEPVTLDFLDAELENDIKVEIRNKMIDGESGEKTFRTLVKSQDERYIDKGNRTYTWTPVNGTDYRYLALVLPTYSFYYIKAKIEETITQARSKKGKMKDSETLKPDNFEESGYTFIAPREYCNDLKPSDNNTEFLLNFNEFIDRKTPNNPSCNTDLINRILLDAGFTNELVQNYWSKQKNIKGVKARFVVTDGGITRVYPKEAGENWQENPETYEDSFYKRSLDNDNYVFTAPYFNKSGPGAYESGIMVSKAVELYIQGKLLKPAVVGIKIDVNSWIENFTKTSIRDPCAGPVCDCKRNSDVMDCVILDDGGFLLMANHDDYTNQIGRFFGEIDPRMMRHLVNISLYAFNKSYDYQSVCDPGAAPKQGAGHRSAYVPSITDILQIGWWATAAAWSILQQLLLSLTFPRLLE
T2 sequence (P54290 945-1091 partner limits assumed, other chains not shown): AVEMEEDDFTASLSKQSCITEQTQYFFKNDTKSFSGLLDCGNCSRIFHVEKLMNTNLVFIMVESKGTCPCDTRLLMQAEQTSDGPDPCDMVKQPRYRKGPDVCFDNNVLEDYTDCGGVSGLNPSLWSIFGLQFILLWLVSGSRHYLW
T1 sequence (Q00975 357-482): as the sequence (Q00975 357-482) above
T4 sequence (P62871 whole entry): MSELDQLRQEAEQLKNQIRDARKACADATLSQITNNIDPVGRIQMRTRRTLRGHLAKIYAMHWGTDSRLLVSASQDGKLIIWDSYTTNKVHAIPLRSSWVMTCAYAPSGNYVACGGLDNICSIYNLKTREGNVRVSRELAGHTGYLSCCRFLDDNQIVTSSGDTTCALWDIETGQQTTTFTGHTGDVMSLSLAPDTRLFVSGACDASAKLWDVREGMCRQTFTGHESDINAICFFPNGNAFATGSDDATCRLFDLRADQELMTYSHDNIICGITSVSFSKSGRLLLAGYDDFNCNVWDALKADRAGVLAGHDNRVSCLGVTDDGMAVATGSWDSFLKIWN

Consider “NTB (45-95): NTB subdomain, residues 45-95 (SEQ ID NO.: 2) (KQSIAQRARTMALYNPIPVKQNCFTVNRSLFVFSEDNVVRKYAKRITEWP; listed as Homo sapiens)”, for which the “Interaction with I-IIB (yeast two-hybrid, ΔB)” value in experiment [1] is reported as “Robust ΔB values”. Moreover, in experiment [2], the “Effect on G/Q slope (Gmax-Qmax relation), with Gβγ” value was “depressed Gmax-Qmax relations to the same extent as did full NTB”. Take “NTB (56-95)—CFP: NTB (56-95) fused to CFP (MALYNPIPVKQNCFTVNRSLFVFSEDNVVRKYAKRITEWP; also: fused to CFP)”: in experiment [3], the FRmax is given as 2.44 and the “Kd,EFF / affinity for I-IIB (FRET), in words” value (“Kd,EFF / affinity for I-IIB” below) is “affinity equivalent to that of full NTB”. As for “NTB (1-44)—CFP: NTB (1-44) fused to CFP (MVRFGDELGGRYGGPGGGERARGGGAGGAGGPGPGGLQPGQRVL; also: fused to CFP)”, in experiment [3], the “Kd,EFF / affinity for I-IIB” value is on record as “no detectable association”.

B1: NTB-CFP: NTB peptide fused to CFP (protein)
chain: MVRFGDELGGRYGGPGGGERARGGGAGGAGGPGPGGLQPGQRVLYKQSIAQRARTMALYNPIPVKQNCFTVNRSLFVFSEDNVVRKYAKRITEWP
modifications: left off: large carriers
Turning to B1, in experiment [3], the FRmax worked out at 3.66 and the “Kd,EFF / affinity for I-IIB” value is recorded as “comparable to that for an apoCaM/IQ segment interaction”. For the same molecule, in experiment [2] (peptide coexpressed with channels, absent Gβγ), the “Effect on G/Q slope and currents, without Gβγ” value is on record as “no differences from control”.

B2: NTB [1-55]: residues 1-55 of NTB (protein)
chain: MKLLSSIEQACDICRLKKLKCSKEKPKCAKCLKNNWECRYSPKTKRSPLTRAHLTEVESRLERLEQLFLLIFPREDLDMILKMDSLQDIKALLTGLFVQDNVNKDAVTDRLASVETDMPLTLRQHRISATSSSEESSNKGQRQLTVSMVRFGDELGGRYGGPGGGERARGGGAGGAGGPGPGGLQPGQRVLYKQSIAQRART
Regarding B2, in experiment [4], the “Interaction with Gβ1 (yeast two-hybrid)” value is “interacted with Gβ1”.

B3: NTB (Δ45-55): NTB peptide lacking residues 45-55 (protein)
chain: MVRFGDELGGRYGGPGGGERARGGGAGGAGGPGPGGLQPGQRVLMALYNPIPVKQNCFTVNRSLFVFSEDNVVRKYAKRITEWP
modifications: left off: small tags and cut ends
For the molecule B3, the “Interaction with I-IIB (yeast two-hybrid, ΔB)” value in experiment [1] was “partially attenuated association”. Besides, the “Effect on G/Q slope (Gmax-Qmax relation), with Gβγ” value in experiment [2] is “inter-mediate inhibition”.
